# Measurements: US20240240209A1, “SYNTHESIS OF ENANTIOPURE CIS-A-IRONE FROM A RENEWABLE CARBON SOURCE” (Agency for Science, Technology and Research, priority 2021, published 2024)
# B1: pMT10: pMT1 with Y200F S182E L273V L180A A202L Y65F C156A T91P (protein)
# chain: MPQEARTPQQQVTADEVGDWYDKFGEVYHLTLGESVHCGLWFPPDAPVPQDMELVTMSSQAQDRFTDYLIETLDPKAGQHLLDIGCGTGRPALKAARQRGIAVTGVAVSKEQIAAANRLAAGHGLTERLTFEVADAMRLPYEDESFDCAWAIESLAHMDRAKALGEAWRVLKPGGDLLVAEEVVTEELTEPETALFETLFALNVPPRLGEFFDIVSGAGFHTLSLKDLSANLAMTMNVFALGVYSRRAEFTERFGAEFVDGLLAGLGSAQETVIRKTRFFMATLRKPAV
# modifications: Modified from pMT1
# notes: pMT1 with Y200F S182E L273V L180A A202L Y65F C156A T91P
# Test: Fed-batch production of cis-α-irone in 5 L bioreactor
# Format: cell-based, Escherichia coli
# Details: 10% DO, another 24 h after feeding stopped
# Method: FIGS. 5a and 5b show the time-course profiles of OD600, cis-α-irone, β-irone and psi-ionone titers when DO was controlled at 2% and 10% respectively.
# Lastly, a single-phase fed-batch process was tested in a 5 L bioreactor. Even though 2O31 ΔmetJ strain produced a higher titer of cis-α-irone, its growth seemed to be impeded during fermentation. Thus, 2O31-pMT10 strain was tested. The optimized bioprocess for α-ionone was applied^8, in which the glucose feeding rate was set at 10 g/h and the glucose concentration was kept between 0-5 g/L. Two different dissolved oxygen (DO) levels were tested: 2% and 10%. Under these DO settings, evaporation was kept at minimum which is <0.05%. […] Subsequently, cis-α-irone production became faster at 2% DO than 10% DO. At 113 h, when glucose feeding was stopped, approximately 109 mg/L and 106 mg/L cis-α-irone were produced at 2% and 10% DO respectively. By continuing incubating the cultures for another 24 h, a final titer of approximately 153 mg/L and 172 mg/L cis-α-irone were produced at 2% and 10% DO respectively. Simultaneously, a decrease in psi-ionone concentration was observed during the last 24 h, indicating psi-ionone was converted to cis-α-irone. Other DO levels may also be used, for example 15%. […]
molecule,measurement,value
B1,final titer of cis-α-irone,~172 mg/L
